This assay concerns the target T1, Human BCMA (human, UniProt Q02223 1-54, limits assumed).
T1 construct: Soluble analyte in SPR; construct not described; also called huBCMA; B-cell maturation antigen
T1 sequence (looked up): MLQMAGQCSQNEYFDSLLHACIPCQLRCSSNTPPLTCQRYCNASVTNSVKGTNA
As to the kind of experiment: SPR, IgG immobilised, 37 C. The protocol:
All experiments were performed on a Bio-Rad Proteon XPR36 surface Plasmon resonance biosensor (Bio-Rad, Hercules, Calif.). […] The analysis temperature for the immobilization was 25° C. and the running buffer was HBS-T+(10 mM HEPES, 150 mM NaCl, 0.05% Tween-20, pH 7.4). Channels were activated in the analyte (horizontal) direction by injecting a mixture of 1 mM ECD and 0.25 mM NHS for 3 minutes at a flow rate of 30 μL/min. IgGs were immobilized on the activated spots by injecting them in the ligand (vertical) direction at 20 μg/mL in 10 mM Acetate pH 4.5 buffer for 1.5 minutes at […]. The activated surfaces were blocked by injecting 1M ethanolamine, pH 8.5 in the analyte direction for 3 minutes at 30 μL/min.
The analysis temperature for the BCMA binding analysis was 37° C. or 25° C. in a running buffer of HBS-T+, supplemented with 1 mg/mL BSA. A kinetic titration method was employed for the interaction analysis as described in Abdiche, et al. Human BCMA (huBCMA) or cynomolgus monkey BCMA (cyBCMA) analyte was injected in the analyte direction using a series of injections from low to high concentration. The concentrations used were 0.08 nM, 0.4 nM, 2 nM, 10 nM and 50 nM (a 5-membered series, with a 5-fold dilution factor and top concentration of 50 nM). The association time for a given analyte dilution was two minutes. Immediately after the 50 nM BCMA injection, dissociation was monitored for 2 hours.
The sensorgrams were double-referenced and fit to a 1:1 Langmuir with mass transport kinetic titration model in BIAevaluation Software version 4.1.1 (GE Lifesciences, Piscataway, N.J.).
On the technique in general: In SPR one partner is held on a chip, and binding of the other changes the refractive index at the surface.

Residue numbers refer to the chain shown, from its start.

B1: L3.PY/L1.AH/H3.TAQ (antibody, V domains shown)
VH: EVQLLESGGGLVQPGGSLRLSCAASGFTFGSYAMTWVRQAPGKGLEWVSAISGSGGNTFYADSVKGRFTISRDNSKNTLYLQMNSLRAEDTAVYYCTRVSPIAAQMDYWGQGTLVTVSS
VL: EIVLTQSPGTLSLSPGERATLSCRASQSVSAHYLAWYQQKPGQAPRLLIYGASSRATGIPDRFSGSGSGTDFTLTISRLEPEDFAVYYCQHYPYPPSFTFGQGTKVEIK
notes: IgG
With B1, the Kd (in general, a measure of binding affinity in units of concentration) was determined as 0.37 nM; the “T ½” value is 9.68 min; the koff (as a rule, the rate constant with which the complex falls apart) was determined as 0.00119 s⁻¹; the kon (in general, a measure of how fast the partners come together) came to 3.27e+06 M⁻¹ s⁻¹.

B2: L3.PY/L1.PH/H3.AQ (antibody, V domains shown)
VH: B1 VH with T97A
VL: B1 VL with A31P
notes: IgG
For the molecule B2, the Kd was 0.52 nM, the “T ½” value stood at 7.27 min, the koff worked out at 0.00159 s⁻¹ and the kon came to 3.08e+06 M⁻¹ s⁻¹.

B3: L3.PY/L3.KF/H3.AE (antibody, V domains shown)
VH: B1 VH with T97A, Q105E
VL: B1 VL with A31S, H32S, Q90K, H91F
notes: IgG
Take B3: the Kd was determined as 0.51 nM, the “T ½” value was found to be 7.44 min, the koff was found to be 0.00155 s⁻¹ and the kon stood at 3.07e+06 M⁻¹ s⁻¹.

B4: L3.PY/L3.KF/H2.YQ (antibody, V domains shown)
VH: B1 VH with G53Y, S54Q, T97A, A104S, Q105G
VL: B1 VL with A31S, H32S, Q90K, H91F
notes: IgG
For the molecule B4, the Kd was 1.14 nM, the “T ½” value is 5.18 min, the koff is 0.00223 s⁻¹ and the kon stood at 1.96e+06 M⁻¹ s⁻¹.

B5: L3.PY/L3.KF/H3.YA (antibody, V domains shown)
VH: B1 VH with T97A, A103Y, Q105G
VL: B1 VL with A31S, H32S, Q90K, H91F
notes: IgG
For B5, the affinity, expressed as Kd, was 0.47 nM; the “T ½” value stood at 7.85 min; the koff was 0.00147 s⁻¹; the kon came to 3.12e+06 M⁻¹ s⁻¹.

B6: L3.PY/L3.KF/H3.TAQ (antibody, V domains shown)
VH: B1 VH
VL: B1 VL with A31S, H32S, Q90K, H91F
notes: IgG
As to B6, binding was characterised by a dissociation constant (Kd) of 0.58 nM, the “T ½” value came to 7.12 min, the koff is 0.00162 s⁻¹ and the kon came to 2.82e+06 M⁻¹ s⁻¹.

B7: L3.PY/L1.FF/H3.YA (antibody, V domains shown)
VH: B1 VH with T97A, A103Y, Q105G
VL: B1 VL with A31S, H32F, Y33F
notes: IgG
For the molecule B7, the Kd was found to be 0.51 nM, the “T ½” value worked out at 6.41 min, the koff amounted to 0.0018 s⁻¹ and the kon was 3.5e+06 M⁻¹ s⁻¹.

B8: L3.PY/L3.KY/H2.DY (antibody, V domains shown)
VH: B1 VH with S52D, G53Y, T97A, A104S, Q105G
VL: B1 VL with A31S, H32S, Q90K, H91Y
notes: IgG
On to B8, for which the Kd is 0.2 nM, the “T ½” value worked out at 18 min, the koff came to 0.000642 s⁻¹ and the kon worked out at 3.19e+06 M⁻¹ s⁻¹.

B9: L3.PY/L1.FF/H2.DY (antibody, V domains shown)
VH: B1 VH with S52D, G53Y, T97A, A104S, Q105G
VL: B1 VL with A31S, H32F, Y33F
notes: IgG
Take B9: the affinity, expressed as Kd, was 0.65 nM; the “T ½” value was determined as 4.27 min; the koff was 0.00271 s⁻¹; the kon was determined as 4.14e+06 M⁻¹ s⁻¹.

B10: L3.PY/L1.FF/H3.TAQ (antibody, V domains shown)
VH: B1 VH
VL: B1 VL with A31S, H32F, Y33F
notes: IgG
Consider B10, for which the affinity, expressed as Kd, was 0.54 nM; the “T ½” value is 6.12 min; the koff came to 0.00189 s⁻¹; the kon stood at 3.52e+06 M⁻¹ s⁻¹.

B11: L3.PY/L3.KF/H3.AQ (antibody, V domains shown)
VH: B1 VH with T97A
VL: B1 VL with A31S, H32S, Q90K, H91F
notes: IgG
For the molecule B11, the Kd turned out to be 0.65 nM, the “T ½” value turned out to be 5.09 min, the koff worked out at 0.00227 s⁻¹ and the kon worked out at 3.48e+06 M⁻¹ s⁻¹.

B12: L3.PY/L3.KF/H2.DY (antibody, V domains shown)
VH: B1 VH with S52D, G53Y, T97A, A104S, Q105G
VL: B1 VL with A31S, H32S, Q90K, H91F
notes: IgG
As to B12, the Kd is 0.67 nM, the “T ½” value came to 6.35 min, the koff came out at 0.00182 s⁻¹ and the kon was found to be 2.74e+06 M⁻¹ s⁻¹.

B13: L3.PY/L1.FF/H3.AE (antibody, V domains shown)
VH: B1 VH with T97A, Q105E
VL: B1 VL with A31S, H32F, Y33F
notes: IgG
In the case of B13, the Kd turned out to be 0.69 nM, the “T ½” value was 4.39 min, the koff is 0.00263 s⁻¹ and the kon was 3.82e+06 M⁻¹ s⁻¹.

B14: L3.PY/L3.KF/H2.LT (antibody, V domains shown)
VH: B1 VH with G53L, S54T, T97A, A104S, Q105G
VL: B1 VL with A31S, H32S, Q90K, H91F
notes: IgG
Take B14: the Kd was 0.69 nM, the “T ½” value is 6.05 min, the koff is 0.00191 s⁻¹ and the kon was found to be 2.75e+06 M⁻¹ s⁻¹.

B15: L3.PY/L1.FF/H2.LT (antibody, V domains shown)
VH: B1 VH with G53L, S54T, T97A, A104S, Q105G
VL: B1 VL with A31S, H32F, Y33F
notes: IgG
B15: the Kd stood at 0.51 nM, the “T ½” value stood at 6.92 min, the koff worked out at 0.00167 s⁻¹ and the kon came out at 3.3e+06 M⁻¹ s⁻¹.

B16: L3.PY/L1.FF/H3.AQ (antibody, V domains shown)
VH: B1 VH with T97A
VL: B1 VL with A31S, H32F, Y33F
notes: IgG
For the molecule B16, the Kd amounted to 0.46 nM, the “T ½” value worked out at 7.51 min, the koff was found to be 0.00154 s⁻¹ and the kon was 3.32e+06 M⁻¹ s⁻¹.

B17: L3.PY/L3.KF/H2.QL (antibody, V domains shown)
VH: B1 VH with S63Q, V64L, T97A, A104S, Q105G
VL: B1 VL with A31S, H32S, Q90K, H91F
notes: IgG
As for B17, binding was characterised by a dissociation constant (Kd) of 0.6 nM, the “T ½” value amounted to 9.26 min, the koff amounted to 0.00125 s⁻¹ and the kon is 2.07e+06 M⁻¹ s⁻¹.

B18: L3.PY/L1.PH/H2.QR (antibody, V domains shown)
VH: B1 VH with S63Q, V64R, T97A, A104S, Q105G
VL: B1 VL with A31P
notes: IgG
Take B18: binding was characterised by a dissociation constant (Kd) of 0.64 nM, the “T ½” value was 4.89 min, the koff amounted to 0.00236 s⁻¹ and the kon was 3.69e+06 M⁻¹ s⁻¹.

B19: L3.PY/L1.PH/H3.TAQ (antibody, V domains shown)
VH: B1 VH
VL: B1 VL with A31P
notes: IgG
Consider B19, for which the Kd stood at 0.59 nM, the “T ½” value was 5.43 min, the koff is 0.00213 s⁻¹ and the kon worked out at 3.58e+06 M⁻¹ s⁻¹.

B20: L3.PY/L1.FF/H2.YQ (antibody, V domains shown)
VH: B1 VH with G53Y, S54Q, T97A, A104S, Q105G
VL: B1 VL with A31S, H32F, Y33F
notes: IgG
As for B20, the Kd was found to be 0.46 nM, the “T ½” value was found to be 7.61 min, the koff stood at 0.00152 s⁻¹ and the kon amounted to 3.32e+06 M⁻¹ s⁻¹.

B21: L3.PY/L1.PH/H3.AE (antibody, V domains shown)
VH: B1 VH with T97A, Q105E
VL: B1 VL with A31P
notes: IgG
As to B21, the Kd stood at 0.36 nM, the “T ½” value was found to be 8.61 min, the koff was 0.00134 s⁻¹ and the kon stood at 3.68e+06 M⁻¹ s⁻¹.

B22: L3.PY/L3.KY/H2.HA (antibody, V domains shown)
VH: B1 VH with G53H, S54A, T97A, A104S, Q105G
VL: B1 VL with A31S, H32S, Q90K, H91Y
notes: IgG
Take B22: the Kd worked out at 0.49 nM, the “T ½” value worked out at 7.1 min, the koff amounted to 0.00163 s⁻¹ and the kon stood at 3.29e+06 M⁻¹ s⁻¹.

B23: L3.PY/L1.FF/H2.QL (antibody, V domains shown)
VH: B1 VH with S63Q, V64L, T97A, A104S, Q105G
VL: B1 VL with A31S, H32F, Y33F
notes: IgG
As to B23, the affinity, expressed as Kd, was 0.4 nM; the “T ½” value came out at 8.28 min; the koff is 0.0014 s⁻¹; the kon amounted to 3.48e+06 M⁻¹ s⁻¹.

B24: L3.PY/L1.FF/H2.HA (antibody, V domains shown)
VH: B1 VH with G53H, S54A, T97A, A104S, Q105G
VL: B1 VL with A31S, H32F, Y33F
notes: IgG
For B24, the Kd was 0.63 nM, the “T ½” value was determined as 5.29 min, the koff was found to be 0.00219 s⁻¹ and the kon worked out at 3.49e+06 M⁻¹ s⁻¹.

B25: L3.PY/L1.FF/H2.QR (antibody, V domains shown)
VH: B1 VH with S63Q, V64R, T97A, A104S, Q105G
VL: B1 VL with A31S, H32F, Y33F
notes: IgG
For B25, the Kd was 0.51 nM, the “T ½” value worked out at 6.54 min, the koff was determined as 0.00177 s⁻¹ and the kon worked out at 3.47e+06 M⁻¹ s⁻¹.

B26: L3.PY/L1.PH/H2.HA (antibody, V domains shown)
VH: B1 VH with G53H, S54A, T97A, A104S, Q105G
VL: B1 VL with A31P
notes: IgG
On to B26, for which the Kd was 0.49 nM, the “T ½” value was found to be 9.99 min, the koff is 0.00116 s⁻¹ and the kon was 2.37e+06 M⁻¹ s⁻¹.

(Values after patent publication US20160297884A1 (Pfizer, published 2016).)
